Consider 20 sequences from the DeepSol protein solubility set.

A short description of the data set: soluble on expression in E. coli; label from the status in PepcDB or PDB records.
On to “MNNQFIQRVIFDWNRIDNDSYLKGIEAFKGIEKLDFNKPITFFVGENGSGKSTLLEALAVAHGFNPEGGTKNYVFSTHDTHSELCDAIRIAKGYRKEKWGYFLRAESFYNVATQEEEYADITHPSAKYHEKSHGESFLALAQNNMNPNGLYLFDEPEAALSPQRQLTLLMQIYRCAKEGAQFIIVTHSPILLGIPDADIYCFDNGCIHLCEYEDTESYQVTEMFINNRQMLLDRLLTD”, for which the “soluble on expression in E. coli” value is listed as “not soluble”.

As to “MNNSINHKFHHISRAEYQELLAVSRGDAVADYIIDNVSILDLINGGEISGPIVIKGRYIAGVGAEYTDAPALQRIDARGATAVPGFIDAHLHIESSMMTPVTFETATLPRGLTTVICDPHEIVNVMGEAGFAWFARCAEQARQNQYLQVSSCVPALEGCDVNGASFTLEQMLAWRDHPQVTGLAEMMDYPGVISGQNALLDKLDAFRHLTLDGHCPGLGGKELNAYITAGIENCHESYQLEEGRRKLQLGMSLMIREGSAARNLNALAPLINEFNSPQCMLCTDDRNPWEIAHEGHIDALIRRLIEQHNVPLHVAYRVASWSTARHFGLNHLGLLAPGKQADIVLLSDARKVTVQQVLVKGEPIDAQTLQAEESARLAQSAPPYGNTIARQPVSASDFALQFTPGKRYRVIDVIHNELITHSHSSVYSENGFDRDDVSFIAVLERYGQRLAPACGLLGGFGLNEGALAATVSHDSHNIVVIGRSAEEMALAVNQVIQDGGGLCVVRNGQVQSHLPLPIAGLMSTDTAQSLAEQIDALKAAARECGPLPDEPFIQMAFLSLPVIPALKLTSQGLFDGEKFAFTTLEVTELEHHHHHH”, the “soluble on expression in E. coli” value is reported as “soluble”.

As to “MNPFHELEPGPEVPEVVYALIEIPKGSRNKYELDKKTGLLKLDRVLYSPFFYPVDYGIIPQTWYDDGDPFDIMVIMREPVYPLTIIEARPIGIMKMEDSGDKDWKVLAVPVEDPYFNDWKDISDVPKAFLDEIAHFFQRYKELQGKTTKIEGWGNAEEAKREILRAIEMYKEKFGKEE”, the “soluble on expression in E. coli” value is “soluble”.

As for “MNPIAVTLLTGFLGAGKTTLLRHILNEQHGYKIAVIENEFGEVSVDDQLIGDRATQIKTLTNGCICCSRSNELEDALLDLLDNLDKGNIQFDRLVIECTGMADPGPIIQTFFSHEVLCQRYLLDGVIALVDAVHADEQMNQFTIAQSQVGYADRILLTKTDVAGEAEKLHERLARINARAPVYTVTHGDIDLGLLFNTNGFMLEENVVSTKPRFHFIADKQNDISSIVVELDYPVDISEVSRVMENLLLESADKLLRYKGMLWIDGEPNRLLFQGVQRLYSADWDRPWGDEKPHSTMVFIGIQLPEEEIRAAFAGLRK”, the “soluble on expression in E. coli” value was “soluble”.

As to “MNQPFLSVVIATFNVAEVLRECLHSLASQTFRDFEVVIQDGASTDGTLAVAQEAAGRLPRLSLASVADSGIYDAWNRALPRVTGDWVLFLGSDDTLAGPDVLAQCARRLADLPPQVLYACGDALEVYPDGSSRAVTCTAEGATRRMADHIPFCHSSLWHRACLFEARHFDATLRIAADYDLICRTWPHDGVGHTLGITVTHMGVGGVSSSPAHRLRTQWELVRVAARHGHGAFSRRRLVPLCKAVGLWVLCRLAGRRASVMLDRLRVMRGLPPCWTTADPARVGGRDSARGDALEHHHHHH”, the “soluble on expression in E. coli” value is “not soluble”.

Turning to “MNQPIGIADSSRPKTNVRLTISANNLMDLDVFSKSDPICLIYEKTSGRKATTTEEITVPTWKDKQWTERGRTEVVMNNLNPQFTKTFLLPYFFEETQLLRFEIYDADSPTVGQDLSSHDFLGRFECVLAQIVSYSTLKAHLGKTGQIGAQWRNKDKNTKTGSITIYAEEDEKAEKIQFDVCGEGLDKKDFFGKSDPYLNFKRKFDDGSTHLIHRTEVKPKTLDPRWATVQINTQTLCAKDGDRPIIIECYDHDKWKKGEEPRGDAKFSRDDLIGTAQTTLNELLRGSSDAVEILLTNEKKKAKKGDKYKCSGTLKIWNSRIVIEPTFLDFISGGTQLDFAVAVDFTASNGPPKSSSSLHFMSADRPNQYELALRSVLSICQHYNSSKTFEAFGFGAKLPNQSSVSAIFPLDLQRGTSEVVGITGVMTAYRHALSNVQLYGPTNFAPIIENVARKAQNMIHDSARYQILLIITDGIISDMHATIRSIISASGLPLSIIIIGVGNEDFEKMHELDSDDALLQQDSRIAQRDIVQFVTMREFLNNGQGLYLDPDVIQENLAREVLYEVPAQLTGYMKQRGFQPRPVDDPWRRDSPPPEFDPILDGTGRRAPMLQAPPAGFQYPVYADTSIASAPPMY”, the “soluble on expression in E. coli” value is “not soluble”.

On to “MNQPLAGYAPAPAGARMENHGNHMLKVAMQTGNDLLARVGSMTAYEGFVQYEPNPPAVRQIAKDWMTGEGAPLMKCSGDGLLYLADYGANVVVINLNGDGISVNATNLLAFDAHLTWGVERVKGLAKFAGQGLWNTKISGQGWVALTSRGKPIVVDCGGGEDETYVDPDALVAWSPNLKVKGKRSFKAQSLIGRGSGEAFQMAFSGQGIVVVQPSEDSTDRLRVRGLEHHHHHH”, for which the “soluble on expression in E. coli” value was “not soluble”.

Regarding “MNQTKTTTDDNKNSKPAETESTITVPEWITETINGGSFCHVDLETGTNGWASPPGNVFSLRSHNYFTATKQKSPGGDYLLSLAAVDWLKSTTKKLDHILSRPDNRVIHAFKTSQSRSFIFAVNFQVPGKEHYNLVFYFATQKPIPSDSLLHKFINTDEDSFRNERFKIVSNVVKGPWVVKAAAGKFGAFVAGKAMKCTYYRGDNYFEVDVDISSSAIMTALIRFMLGYVTYLMVDIGFVVEAQTAEELPERLIGGARICHMELSSSFLVDDDEKKSLQPRRRMMGAAEDNDDEI”, the “soluble on expression in E. coli” value is “soluble”.

With “MNQWDQFLTPYKQAVDELKVKLKGMRKQYEVGEQASPIEFVTGRVKPIASIIDKANKRQIPFDRLREEMYDIAGLRMMCQFVEDIDVVVNILRQRKDFKVIEERDYIRNTKESGYRSYHVIIEYPIETLQGQKFILAEIQIRTLAMNFWATIEHTLRYKYDGAYPDEIQHRLERAAEAAYLLDEEMSEIKDEIQEAQKYYTQKRSKKHEND”, the “soluble on expression in E. coli” value is listed as “not soluble”.

Consider “MNRIKSTLTALLLAGSFQASAADQTILNSSYDIARELFVAYNPVFAEHWQQKTGKTVEIKQSHAGSSAQARSILQGLAADVVTFNQVTDVQILHDKGKLIPANWQTLLPNASSPYYSTTAFLVRKGNPKNIQDWSDLVRDDVKSVFPNPKTSGNARYTYLAALGFAQKQFGQDNQVQQDEFLKKFLANVAVFDTGGRGATTSFVERGIGDVLITFESEVNNIRQQYGADDYQVVVPKTSILAEFPVAVVEKVAKRNGTYDVATEYVSYLYSEPAQRLLAEFNYRVHDAKVQAEFAERFPAVELLTVEGIAGGWEQAMQTQFANGAKLDQLLRR”, for which the “soluble on expression in E. coli” value is listed as “not soluble”.

Take “MNRISFNSFSNMHSLLSSKFQEHYNDIYDWNGNIENIYKANTFISIGYKLLYPLGVLEANFDKEKLKKFLFRICSYYNDIPYHTSLHAAQVAHFSKSMLFMLDMNHKISAIDEFCLHISSLCHDTGHPGLNNYFLINSENNLALTYNDNSVLENYHCSLLFKTLKNPNYNIFEHYPYHIFISCKKNIIKAILSTDMKNHFEYISDFRTSKEFIDYDNLSNDQIWQIFCLILKASDIGHSTLEWNKHLEWTLKINEEFYLQGLLEKSLNIQNSFLCDINTMNKLALSQIDFLKHLCIPLFNELNYICKNNDVYTHCIQPIENNIERWESHKND”: the “soluble on expression in E. coli” value was “soluble”.

For the sequence “MNRTLYTVLFHLGLPLVALRLWLRARKAPAYRQRIGERFASGLPAMQRDGIWVHAVSVGESIAAAPMIRALLVQYPQLPITVTCMTPTGSERIKALFANEPRIQYCYLPYDLPWAAGRFLDHVQPQLGIIMETELWPNHIHQCAKRAIPVVLANARLSERSARGYARFARLTQPMLAEMAWFAVQTEVEAQRFRDLGARAECVVVTGSIKFDLNIDPQLLERAAQLREQWQATQRPVWIAASTHAGEDESVLSAHRTLLASHPDALLILVPRHPERFDSVHALCQQQGFKTVRRSSAQAVTPDVAVLMGDTMGELLFLYALVDIAFVGGSLVPNGGHNLLEPAALAKPVLSGPHLFNFLEIAAMLRTAGALQEVSDATALATAVQRLIDQPQQARSMADAGLAVMKANQGALQRLLDGIERLMAKRRVAEDAERPERHAHAERRHDSAAALEHHHHHH”, the “soluble on expression in E. coli” value was “not soluble”.

Take “MNSDPTRERILHGLITLYILKELVKRPMHGYELQKSMFETTGQALPQGSIYILLKTMKERGFVISESSVNEKGQQLTVYHITDAGKKFLCDHSQALQLARKIIDDLLSTVDIIENRN”: the “soluble on expression in E. coli” value is reported as “soluble”.

With “MNSILSLIGRDTELFHQDINANEKELQSVVSQSRFLVLGGAGSIGQAVTKEIFKRNPQKLHVVDISENNMVELVRDIRSSFGYINGDFQTFALDIGSIEYDAFIKADGQYDYVLNLSALKHVRSEKDPFTLMRMIDVNVFNTDKTIQQSIDAGAKKYFCVSTDKAANPVNMMGASKRIMEMFLMRKSEEIAISTARFANVAFSDGSLLHGFNQRIQKNQPIVAPNDIKRYFVTPQESGELCLMSCIFGENRDIFFPKLSEALHLISFADIAVKYLKQLGYEPHLCESEDEARELAKTLPAQGKWPCLFTSSDTTGEKDFEEFFTDKETLDMARFDNLGIIKNDSLYQQELLELFEQKIGQMKTDRQWTKEEIVQLFFIMIPDFGHKETGKYLDSKM”, the “soluble on expression in E. coli” value is given as “soluble”.

“MNSITVDFLNDQVFQGPMDGTEDKKDGNPKKSTCEKHWAVIDQHNVAICVQLCSFVEGEEKKCAEYYSDKVGGVLKFGRYSLKTIDVKTDLKEFTDKKGFTLYTVEITNSKKKDAPKKTVDILYFSGWPDHGAPQEAYPALEMLKFCESYKKNVLVHCSAGVGRTGTLVAIKYGIELCLKKKVI”: the “soluble on expression in E. coli” value is on record as “not soluble”.

Turning to “MNSIVNGLYTFMSTTVVPAVTEQAANLVGGASALAEGATQALTQISQTALEWGSGSEDATASSEVFSWEQQGAAAASSDLQEDKKETTEDVHQEAIGASSPNTSIEWEVIHENPDETGPIRHNQFEMVQNNYEWMKNSK”, the “soluble on expression in E. coli” value is recorded as “soluble”.

For the sequence “MNSKKVLFIIFICALTVTGCDTQEQTTIDSGLTLIRATQTLDSLYANYSVSGTCLLRENYPSNVGNYTATYLASEEQKEIPNQYSYLWPYSGTFSAVNALCAATGDESYKTLLDNKVLRGLEKYLDISRSPAGYASYINTASQSDRFYDDNIWLGIDFTDAYLNTKEEKYLKKAQLIWKFIESGADDKLGGGIYWCEQKKVSKNTCSNAPASVFALKMFKAIRDSSYLIKGQELYEWTKKRLQDSTDYLYFDNISLDGKIDKSKYAYNSGQMMQAATLLYQLTGRSHFLKDAQNIAKACYNYFFINFIPEEGEPFKLLKKGDVWFTAVMLRGFIELYQTDHNKTYINSFNQNMDYAWEHVRDEKGLFDIDFSGRTHDDRKWLLTQAAMVEMYARLAVTKLEHHHHHH”, the “soluble on expression in E. coli” value is “not soluble”.

For the sequence “MNSQQDLTMHNRSAAILLRPAAALYGMVMSLRNCLYDQGIFKSWHSPIPVVSVGNITTGGTGKTPLVDWIVKFYEASGIATAIVSRGYGRRTKGVQLVSDGGRLLLGSRDAGDETAMLAARNPRTIVVVAEKRVEGVQFLMHQFADRLPGVIVLDDAFQHRKIARDLDIVVVNAGAPEEIDAMLPAGRLREPLRGLRRAHLIILGKITDDANSATLLQTLRETGKPVIRSKIKPGKLIHVDGSENETNESVKTLAFAGIGAPEGFLHSLKTAGIKIAATKFFRDHEPYTESAIRSIIGEAKRQGLVPVTTEKDWFRIADEPELAEMLRQVGCRYLTITPEFPDGTQELERQLLDVLKRLEHHHHHH”, the “soluble on expression in E. coli” value is “not soluble”.

In the case of “MNSTFIVNFVGKATPATIKQLAAVTHENGGKWLISKVNFIEDSVAAVIKIELPADNASTVKQAFQTYPSLLVEITDADPHVHKSDAVYKVRLDANDRAGIVNEITHLLDGQGISILDMDCQRVFIAGGGGISSSLFTANVAMRLPVNIEIDDVINELEALSEDTRVTLEA”, the “soluble on expression in E. coli” value is “not soluble”.

For “MNSTHHYEQLIEIFNSCFADDFNTRLIKGDDEPIYLPADAEVPYNRIVFAHGFYASAIHEISHWCIAGKARRELVDFGYWYCPDGRDAQTQSQFEDVEVKPQALDWLFCVAAGYPFNVSCDNLEGDFEPDRVVFQRRVHAQVMDYLTNGIPERPARFIKALQNYYHTPELTAEQFPWPEALN”, the “soluble on expression in E. coli” value is “not soluble”.
